Laboratory results: patent publication US8227408B2, “Leptin as an anti-amyloidogenic biologic and methods for delaying the onset and reducing Alzheimer's disease-like pathology” (Neurotez, Inc., priority 2005, dated 2012)

Tests used:
[1] = tested on: Neuro2a cells stably transfected with hyg-sa134 (SEAP-APP); assay: Aβ production by Neuro2a cells stably transfected with hyg-sa134 (total Aβ in media, sandwich ELISA); format: cell-based, mouse
Description: (§1) Neuro2a (mouse neuroblastoma) stably transfected with hyg-sa134, a pcDNA3.1/Hygro plasmid (Invitrogen, CA) modified to express a fusion protein of secreted alkaline phosphatase (SEAP) and a fragment of APP consisting of the C-terminal 134 amino acids (“CAPP134”) (SEQ ID NO:10) were maintained in culture as described ([…]) in the presence of 400 μg/ml of hygromycin. SEQ ID NO: 11 is the DNA sequence of the entire hygsa134 vector, which was derived from the pcDNA3.1/Hygro vector by genetic manipulation to insert the DNA sequences for SEAP and CAPP134. The SEAP-CAPP cDNA insert from hyg-sa134 was also subcloned into an adenoviral vector using the Adeno Vator system (Qbiogene, Calif.). The DNA sequence for SEAP (corresponding to nucleotides 981-2441 of hyg-sa134) (SEQ ID NO: 9) is located 5′ to the DNA sequence (SEQ ID NO: 12) coding for CAPP134 (SEQ ID NO: 10).
(§2) SY5Y and hyg-sa134-Neuro2a cells were treated at 80% confluency (see below). Primary neural cultures from mouse embryos were allowed to grow for 6-12 days following plating and prior to viral infection and treatments.
About 5 μg/ml or about 10 μg/ml water-soluble cholesterol was added to cultures for 2 or 5 hours. Water soluble cholesterol (Sigma-Aldrich, MO) is a solution made of cholesterol balanced with cyclodextrin CDX (40 mg cholesterol per gr CDX). For comparison, cultures were treated with the equivalent amount of the resin alone, which leads to depletion of cholesterol in the cultures (Simons et al., Proc Natl Acad Sci USA. 95:6460-4 (1998)).
About 100 ng/ml or about 400 ng/ml leptin (Harbor-UCLA, CA), was added in cell culture medium for 2 or 5 h. Cells were approximately 80% confluent at the time of treatment. Peptide YY (3-36) (Phoenix Pharmaceuticals, Inc., CA), and CNTF (Sigma-Aldrich, Mo.) were added at about 25 μM or 150 μM for the same incubation periods. TOFA, etomoxir (Research Biochemicals International, MA) and cerulenin (Sigma-Aldrich, Mo.) were used as described below.
For the determination of Aβ peptide several methodologies also were used. SY5Y cells in culture were metabolically labeled with ^35S-[Met] as described (Figueiredo-Pereira et al. J Neurochem. 72:1417-22 (1999)), followed by immunoprecipitation, resolution of the immunoprecipitates on SDS-PAGE, autoradiography, and densitometric analysis of the autoradiogram. Neuro2a cells were stably transfected with hyg-sa134 (K. Sambamurti, S. Carolina Medical Center, SC) and Aβ40 (SEQ ID NO: 4) plus Aβ42 (SEQ ID NO: 5) plus Aβ43 (SEQ ID NO: 6) (Total Aβ) in the medium then was quantified by sandwich ELISAs developed with 4G8 and 6 ε10 monoclonal antibodies (Signet, Mass.) as described (Figueiredo-Pereira et al., J Neurochem. 72:1417-22 (1999)). Commercially available ELISA kits (KMI Diagnostics, MN) were used for the separate determination of Aβ40 (SEQ ID NO:4) and Aβ42/43 (SEQ ID NO:5/SEQ ID NO:6) in formic acid extracts of mice brains. Flotillin was detected using monoclonal anti-flotillin-1 antibodies (BD Biosciences, CA). Actin was detected using monoclonal anti-actin antibodies (Research Diagnostics, Inc, NJ).
Human (SYSY) or mouse neuroblastoma cell-lines (Neuro2a) commonly are used to study amyloid β metabolism in vitro. Neuro2a cells are stably transfected with hyg-sa134 (SEQ ID NO: 11), a plasmid driving the expression of a recombinant fusion protein containing the human C-terminal fragment of APP of about 134 amino acids, CAPP134 (SEQ ID NO: 10). Here, 5Y5Y or Neuro2a cultures were treated for 2 or 5 h with about 100 ng/ml or about 400 ng/ml leptin (FIG. 4a, 4b). Similarly, primary neurons from embryonic rat brain, infected with an adenovirus to direct the expression of CAPP134 (SEQ ID NO:10) also were treated according to the same regimen. […]

[2] = tested on: primary embryonic rat neurons infected with adenovirus; assay: Aβ production by primary embryonic rat neurons infected with adenovirus (SEAP-APP); format: cell-based; conditions: total Aβ in conditioned media, 5 h; concentration (TOFA 200 μM, cerulenin 200 μM, etomoxir 40 μM, peptide YY (3-36) 25 μM, CNTF 25 μM, leptin 400 ng/ml); mean ± SEM; NS = non-significant
Description: Cell cultures, Treatments, Antibodies and Immunoassays. SY5Y cells (human neuroblastoma) were maintained in culture as described (Johnsingh et al., FEBS Lett. 465:53-8 (2000)). Primary neural cultures were obtained from ε16 rat embryonic cortex, as described (Shimoda et al., 1992. Brain Res. 586:319-31 (1992)). These were either grown as mixed cultures (Johnsingh et al., FEBS Lett. 465:53-8 (2000)) or grown under conditions that favor the isolation and proliferation of astrocytes (Takeshima et al., J Neurosci. 14:4769-79 (1994)).
as §1, §2
Human (SYSY) or mouse neuroblastoma cell-lines (Neuro2a) commonly are used to study amyloid β metabolism in vitro. Neuro2a cells are stably transfected with hyg-sa134 (SEQ ID NO: 11), a plasmid driving the expression of a recombinant fusion protein containing the human C-terminal fragment of APP of about 134 amino acids, CAPP134 (SEQ ID NO: 10). Here, 5Y5Y or Neuro2a cultures were treated for 2 or 5 h with about 100 ng/ml or about 400 ng/ml leptin (FIG. 4a, 4b). Similarly, primary neurons from embryonic rat brain, infected with an adenovirus to direct the expression of CAPP134 (SEQ ID NO:10) also were treated according to the same regimen.

B1: Leptin: peptide hormone controlling adaptive metabolic mechanisms to energy availability; leptin (Harbor-UCLA) in vitro, recombinant murine leptin in mice (protein, UniProt P41160 22-167, looked up)
Leptin: VPIQKVQDDTKTLIKTIVTRINDISHTQSVSAKQRVTGLDFIPGLHPILSLSKMDQTLAVYQQVLTSLPSQNVLQIANDLENLRDLLHLLAFSKSCSLPQTSGLQKPESLDGVLEASLYSTEVVALSRLQGSLQDILQQLDVSPEC
[1]; 2 or 5 h treatment
  Aβ production / levels of Aβ in the media (in words): dose- and time-dependent decrease
[1]; 5 h, highest concentrations of leptin, co-administered with cholesterol, FIG. 4b
  levels of Aβ detected in the media (percentage of corresponding controls), leptin co-administered with cholesterol: 150±4%
[1]; total Aβ in conditioned media, 5 h, concentration (TOFA 200 μM, cerulenin 200 μM, etomoxir 40 μM, peptide YY (3-36) 25 μM, CNTF 25 μM, leptin 400 ng/ml), mean ± SEM, 4 experiments, NS = non-significant
  Neuro2a/SEAP-APP Aβ(% control): 56 ± 5 % control
[2]
  Neurons/SEAPP-APP Aβ (% control): 35 ± 4 % control
